Values quoted from earlier work, collected in PMC12442452.
Like-named read-outs stand apart in the source and are kept apart here.

Key:
[1] = target: T1, Cys25 (UniProt position 147, GQCGSCWAFSA); assay: kinetics; conditions: apo (free) enzyme
[2] = target: His162 (UniProt position 284, SEQLDHGVLLV); assay: kinetics; conditions: apo (free) enzyme
[3] = target: T1, Cys25; conditions: ligand-free cruzain
[4] = target: Cys25 (UniProt position 158, GSCGSCWAFSA); conditions: not stated (apo enzyme implied)

Substance	pKa [1]	pKa [2]	pKa [3]	pKa [4]
Cruzain (cruzipain, major cysteine protease) (Trypanosoma cruzi)	9.7	6.6	9.8	–
Papain (Carica papaya (inferred; not stated in the article))	–	–	–	3.3
